Measured values published in article PMC4739419, “Mutations in the nucleotide binding and hydrolysis domains of Helicobacter pylori MutS2 lead to altered biochemical activities and inactivation of its in vivo function” (BMC Microbiology, 2016).

T1: HpMutS2-E413A (Helicobacter pylori, UniProt O25338, E413A)
T1 construct: (A) HpMutS2-E413A (1-762): Mol. wt; (kDa): 87.7; His6 (C); made in house; host or cells: E. coli Rosetta (DE3) pLysS
T1 sequence (O25338 1-762 E413A): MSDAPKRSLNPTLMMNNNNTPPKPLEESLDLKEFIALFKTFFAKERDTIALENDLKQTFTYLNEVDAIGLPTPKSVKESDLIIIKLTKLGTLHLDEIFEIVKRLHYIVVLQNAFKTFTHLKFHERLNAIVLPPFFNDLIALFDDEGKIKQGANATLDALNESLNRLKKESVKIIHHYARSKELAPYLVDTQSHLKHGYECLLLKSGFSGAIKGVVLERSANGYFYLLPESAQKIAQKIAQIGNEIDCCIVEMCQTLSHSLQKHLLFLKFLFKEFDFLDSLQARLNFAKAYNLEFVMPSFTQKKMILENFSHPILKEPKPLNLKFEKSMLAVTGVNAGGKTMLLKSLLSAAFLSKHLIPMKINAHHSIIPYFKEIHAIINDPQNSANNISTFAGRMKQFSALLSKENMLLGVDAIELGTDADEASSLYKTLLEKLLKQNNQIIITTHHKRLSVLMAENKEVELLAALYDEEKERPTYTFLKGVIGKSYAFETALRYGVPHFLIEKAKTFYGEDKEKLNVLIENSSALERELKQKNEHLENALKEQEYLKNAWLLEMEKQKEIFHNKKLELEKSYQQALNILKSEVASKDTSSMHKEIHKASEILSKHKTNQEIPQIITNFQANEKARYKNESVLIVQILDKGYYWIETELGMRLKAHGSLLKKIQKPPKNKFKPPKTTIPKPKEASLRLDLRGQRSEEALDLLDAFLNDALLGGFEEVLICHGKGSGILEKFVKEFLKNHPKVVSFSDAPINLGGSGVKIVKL

T2: HpMutS2-G338R (Helicobacter pylori, UniProt O25338, G338R)
T2 construct: (A) HpMutS2-G338R (1-762): Mol. wt; (kDa): 87.9; His6 (C); made in house; host or cells: E. coli Rosetta (DE3) pLysS
T2 sequence (O25338 1-762 G338R): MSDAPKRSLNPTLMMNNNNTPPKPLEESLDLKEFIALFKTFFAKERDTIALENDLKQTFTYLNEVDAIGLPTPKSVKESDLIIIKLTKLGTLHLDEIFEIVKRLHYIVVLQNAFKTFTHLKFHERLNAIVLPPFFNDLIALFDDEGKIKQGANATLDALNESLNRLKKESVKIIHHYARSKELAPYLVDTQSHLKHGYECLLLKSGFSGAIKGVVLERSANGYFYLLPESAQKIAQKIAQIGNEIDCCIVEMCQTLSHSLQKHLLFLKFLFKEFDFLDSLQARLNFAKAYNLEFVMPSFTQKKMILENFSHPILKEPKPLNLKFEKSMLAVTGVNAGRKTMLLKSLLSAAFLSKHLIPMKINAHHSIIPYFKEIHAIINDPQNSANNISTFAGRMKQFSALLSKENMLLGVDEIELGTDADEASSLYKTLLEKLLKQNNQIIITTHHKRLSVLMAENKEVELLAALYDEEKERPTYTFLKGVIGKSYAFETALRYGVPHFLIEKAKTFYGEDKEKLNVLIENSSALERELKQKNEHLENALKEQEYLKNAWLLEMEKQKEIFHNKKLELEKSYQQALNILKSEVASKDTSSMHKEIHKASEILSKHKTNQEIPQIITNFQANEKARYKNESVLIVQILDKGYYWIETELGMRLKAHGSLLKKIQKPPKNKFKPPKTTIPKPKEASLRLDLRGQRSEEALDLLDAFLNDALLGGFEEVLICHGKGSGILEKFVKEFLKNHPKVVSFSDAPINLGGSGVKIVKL

T3: ssDNA-HpMutS2 complex (Helicobacter pylori, UniProt O25338)
T3 construct: (A) HpMutS2 (1-762): Mol. wt; (kDa): 87.8; His6 (C); made in house; host or cells: E. coli Rosetta (DE3) pLysS
T3 sequence (O25338 1-762): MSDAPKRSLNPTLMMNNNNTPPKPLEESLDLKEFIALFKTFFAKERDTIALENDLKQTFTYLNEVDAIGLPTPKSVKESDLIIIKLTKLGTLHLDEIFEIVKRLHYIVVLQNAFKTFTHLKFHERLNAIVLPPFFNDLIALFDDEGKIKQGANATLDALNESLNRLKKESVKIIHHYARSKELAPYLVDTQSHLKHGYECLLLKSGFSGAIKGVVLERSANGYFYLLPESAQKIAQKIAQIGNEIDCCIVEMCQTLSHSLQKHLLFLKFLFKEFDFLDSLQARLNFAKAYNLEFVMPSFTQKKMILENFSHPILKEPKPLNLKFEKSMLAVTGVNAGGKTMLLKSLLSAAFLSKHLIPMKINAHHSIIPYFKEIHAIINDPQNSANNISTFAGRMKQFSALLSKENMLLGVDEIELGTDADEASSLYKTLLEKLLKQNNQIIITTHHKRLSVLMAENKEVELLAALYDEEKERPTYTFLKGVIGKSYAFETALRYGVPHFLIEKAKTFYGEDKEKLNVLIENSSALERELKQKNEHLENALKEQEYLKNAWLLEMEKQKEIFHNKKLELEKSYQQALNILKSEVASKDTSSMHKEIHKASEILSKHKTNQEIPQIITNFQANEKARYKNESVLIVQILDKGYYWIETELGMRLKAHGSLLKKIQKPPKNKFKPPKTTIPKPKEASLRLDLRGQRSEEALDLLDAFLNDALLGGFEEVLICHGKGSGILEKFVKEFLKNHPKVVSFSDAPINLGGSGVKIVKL

T4: HpMutS2 (Helicobacter pylori 26695, UniProt O25338 1-762)
T4 sequence: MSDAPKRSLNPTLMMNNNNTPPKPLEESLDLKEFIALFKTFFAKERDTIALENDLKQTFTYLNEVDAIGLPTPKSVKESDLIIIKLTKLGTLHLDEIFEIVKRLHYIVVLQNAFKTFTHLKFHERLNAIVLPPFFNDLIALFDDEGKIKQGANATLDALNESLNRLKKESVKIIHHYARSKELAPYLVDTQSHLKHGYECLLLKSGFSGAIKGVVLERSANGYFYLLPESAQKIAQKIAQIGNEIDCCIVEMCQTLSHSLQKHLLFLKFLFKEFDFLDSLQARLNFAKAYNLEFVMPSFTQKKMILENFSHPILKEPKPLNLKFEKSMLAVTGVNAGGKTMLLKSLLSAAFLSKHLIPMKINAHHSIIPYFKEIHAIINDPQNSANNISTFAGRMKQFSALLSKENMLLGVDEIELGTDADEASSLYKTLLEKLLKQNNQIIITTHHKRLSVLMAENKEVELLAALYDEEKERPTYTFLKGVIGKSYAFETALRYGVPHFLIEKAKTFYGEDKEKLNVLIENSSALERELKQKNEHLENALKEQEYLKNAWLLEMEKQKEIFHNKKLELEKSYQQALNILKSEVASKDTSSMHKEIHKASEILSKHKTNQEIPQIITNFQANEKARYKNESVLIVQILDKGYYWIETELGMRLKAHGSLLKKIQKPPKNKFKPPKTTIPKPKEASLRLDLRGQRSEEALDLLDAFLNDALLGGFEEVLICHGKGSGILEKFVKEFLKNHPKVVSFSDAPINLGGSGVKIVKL


What was measured:
HpMutS2 [1] = target: T5, HpMutS2 (Helicobacter pylori, UniProt O25338); test: Tryptophan fluorescence-quenching nucleotide binding assay
T5 construct: (A) HpMutS2 (1-762): Mol. wt; (kDa): 87.8; His6 (C); made in house; host or cells: E. coli Rosetta (DE3) pLysS
Method: (§1) Next, the ATP hydrolysing abilities of HpMutS2-G338R and HpMutS2-E413A were tested and compared to that of wild-type HpMutS2. […] Therefore, to determine the nucleotide binding efficiencies of HpMutS2, HpMutS2-G338R, and HpMutS2-E413A, intrinsic fluorescence properties of these proteins were exploited. HpMutS2 has two tryptophan residues at positions 551 and 644. A fluorescence-quenching assay was used to determine the ATP and ADP binding affinities of HpMutS2 and its mutants. Quenching of the Trp fluorescence was recorded upon titration with ATP and ADP in absence of any divalent metal ions. Saturation isotherms generated from the changes in the fluorescence emission spectra of HpMutS2, HpMutS2-G338R, and HpMutS2-E413A were used to calculate the dissociation constants for ATP and ADP (Figs. 2a, b and c respectively).
(§2) Fig. 2 Nucleotide binding affinities of a HpMutS2 b HpMutS2-G338R and c HpMutS2-E413A. Tryptophan fluorescence assays described in the Methods section were used to determine the nucleotide binding affinities of proteins.
(§3) Fluorescence spectroscopy analysis of HpMutS2 was carried out based on the intrinsic fluorescent signal of tryptophan. The proteins were dialyzed in buffer B (50 mM Tris pH 8.0 and 100 mM NaCl) for 4–6 h with at least two changes of the buffer. Fluorescence intensities were measured on a Shimadzu, RF 5000 spectrofluorimeter using a 1-cm stirred quartz cuvette at 25 °C. The emission spectra were recorded over a wavelength of 300–400 nm with an excitation wavelength of 280 nm. To measure the dissociation constants for ATP and ADP, small aliquots of cofactor were added to proteins (1 μM), and spectra were recorded. Each spectra recorded was an average of three scans. The maximum fluorescence intensities observed at around 340 nm were selected for calculating the difference in intrinsic fluorescence of protein alone and in the presence of ligand. Control titrations were conducted and all the fluorescence emission spectra were corrected by subtracting control spectra. The dissociation constants were calculated graphically using a plot of ΔF/ΔFmax versus ligand concentration. ΔF is the magnitude of the difference between the observed fluorescence intensity at a given concentration of ligand and the fluorescence intensity in the absence of ligand and ΔFmax is the difference at saturating concentration of ligand.

HpMutS2-E413A [2] = target: T1, HpMutS2-E413A; test: as above; settings: no divalent metal ions, protein 1 μM, 25 °C; read-out: Kd (dissociation constant)
Method: as §1, §2, §3

HpMutS2-G338R [3] = target: T2, HpMutS2-G338R; test: as above; settings: no divalent metal ions, protein 1 μM, 25 °C; read-out: Kd (dissociation constant)
Method: as §1, §2, §3

ssDNA-HpMutS2 complex = target: T3, ssDNA-HpMutS2 complex; test: Chase experiment on preformed nucleoprotein complex; format: binding; settings: highest concentration of ATP used (0.25–5 mM)
HpMutS2-G338R [4] = target: T6, HpMutS2-G338R (Helicobacter pylori 26695, UniProt O25338 1-762, G338R); test: EMSA; 1 mM ADP; EMSA: 0.16 nM DNA, buffer A (50 mM Tris pH 8.0, 50 mM NaCl, 1 mM DTT per Fig. S3 legend) with 0.1 ug/ul BSA, NaCl 110 mM, no divalent metal stated, 30 min on ice, 8% native PAGE at 4 C; nucleotides 1 mM; Hill-slope fit; settings: protein: recombinant; tags: C-terminal His6; chain copies: 4; label: 5'-32P
HpMutS2 [5] = target: T4, HpMutS2; test: as above; settings: protein: recombinant; tags: C-terminal His6; chain copies: 4; label: 5'-32P
HpMutS2-G338R [6] = target: T6, HpMutS2-G338R; test: EMSA; 1 mM ATP; EMSA: 0.16 nM DNA, buffer A (50 mM Tris pH 8.0, 50 mM NaCl, 1 mM DTT per Fig. S3 legend) with 0.1 ug/ul BSA, NaCl 110 mM, no divalent metal stated, 30 min on ice, 8% native PAGE at 4 C; nucleotides 1 mM; Hill-slope fit; settings: protein: recombinant; tags: C-terminal His6; chain copies: 4; label: 5'-32P
HpMutS2 [7] = target: T4, HpMutS2; test: EMSA; 1 mM ATPgS; EMSA: 0.16 nM DNA, buffer A (50 mM Tris pH 8.0, 50 mM NaCl, 1 mM DTT per Fig. S3 legend) with 0.1 ug/ul BSA, NaCl 110 mM, no divalent metal stated, 30 min on ice, 8% native PAGE at 4 C; nucleotides 1 mM; Hill-slope fit; settings: protein: recombinant; tags: C-terminal His6; chain copies: 4; label: 5'-32P
HpMutS2-G338R [8] = target: T6, HpMutS2-G338R; test: EMSA; no nucleotide; EMSA: 0.16 nM DNA, buffer A (50 mM Tris pH 8.0, 50 mM NaCl, 1 mM DTT per Fig. S3 legend) with 0.1 ug/ul BSA, NaCl 110 mM, no divalent metal stated, 30 min on ice, 8% native PAGE at 4 C; nucleotides 1 mM; Hill-slope fit; settings: protein: recombinant; tags: C-terminal His6; chain copies: 4; label: 5'-32P
HpMutS2 [9] = target: T4, HpMutS2; test: as above; settings: protein: recombinant; tags: C-terminal His6; chain copies: 4; label: 5'-32P
HpMutS2-E413A [10] = target: HpMutS2-E413A (Helicobacter pylori 26695, UniProt O25338 1-762, E413A); test: EMSA; no nucleotide; no plateau, value not accurate; EMSA: 0.16 nM DNA, buffer A (50 mM Tris pH 8.0, 50 mM NaCl, 1 mM DTT per Fig. S3 legend) with 0.1 ug/ul BSA, NaCl 110 mM, no divalent metal stated, 30 min on ice, 8% native PAGE at 4 C; nucleotides 1 mM; Hill-slope fit; settings: protein: recombinant; tags: C-terminal His6; chain copies: 4; label: 5'-32P

Molecule	Kd (HpMutS2 [1]; no divalent metal ions, protein 1 μM, 25 °C, read-out: Kd (dissociation constant)) [µM]	Kd value, fold less than Km value (HpMutS2 [1]; wild-type HpMutS2)	Kd (HpMutS2-E413A [2]) [µM]	Kd (HpMutS2-G338R [3]) [µM]	dissociation of ssDNA from preformed complex (ssDNA-HpMutS2 complex)	Kd (HpMutS2-G338R [4]) [µM]	Kd (HpMutS2 [5]) [µM]	Kd (HpMutS2-G338R [6]) [µM]	Kd (HpMutS2 [7]) [µM]	Kd (HpMutS2-G338R [8]) [µM]	Kd (HpMutS2 [9]) [µM]	Kd (HpMutS2-E413A [10]) [µM]
Nc1ncnc2c1ncn2[C@@H]1O[C@H](COP(=O)(O)OP(=O)(O)OP(=O)(O)O)[C@@H](O)[C@H]1O [ATP]	167 ± 24.3	~ 2.4 fold	220 ± 54.2	409 ± 70.4	~ 20%							
ssDNA 63-mer (ODN4) (ssDNA) DNA: ATCGATAGTCGGATCCTCCAGACAGCTCCATGTAGCAAGGCACTGGTAGAATTCGGCAGCGTC						0.0239 ± 0.00291	0.0173 ± 0.00289	0.0307 ± 0.00343	0.0114 ± 0.00019	0.0324 ± 0.00332	0.0215 ± 0.00228	~0.0738
